Assay results published in the supplement of paper PMC9732359.
± gives the uncertainty stated by the source.

Assay: protein stability index of a GFP-peptide fusion (yeast GPS) (PSI 1-4); higher = more stable; sorted into four equal gates, so the index is relative within each strain
Summary of the method: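 The protein stability index combines read frequencies across sorting gates, each weighted by its gate number and then summed. To obtain those frequencies, a pooled yeast library of GFP fusions to tiled 17-residue yeast protein peptides, on a plasmid also expressing Cherry, was grown to mid-log phase in leucine-free medium. The cells were sorted into four equal gates by GFP/Cherry ratio before plasmid amplification by PCR and Illumina sequencing.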

DRSKPVALTSFLGYKAG [RPL3]
protein stability index (doa10∆): 2.85 ± 0.075
protein stability index (pdr5∆): 2.89 ± 0.063
protein stability index (san1∆): 3.08 ± 0.06
protein stability index (ubr1∆): 2.09 ± 0.036

DRVIFRVPIRSEYKVAF [PRP8]
protein stability index (doa10∆): 2.93 ± 0.069
protein stability index (pdr5∆): 2.71 ± 0.061
protein stability index (san1∆): 2.55 ± 0.077
protein stability index (ubr1∆): 2.42 ± 0.034

DRVKVIECFKPGDIVRA [CSL4]
protein stability index (doa10∆): 2.66 ± 0.13
protein stability index (pdr5∆): 2.39 ± 0.14
protein stability index (san1∆): 2.1 ± 0.18
protein stability index (ubr1∆): 2.36 ± 0.16

DSAAIIAATGLNQINGL [GRR1]
protein stability index (doa10∆): 2.85 ± 0.096
protein stability index (pdr5∆): 2.83 ± 0.089
protein stability index (san1∆): 2.79 ± 0.083
protein stability index (ubr1∆): 2.96 ± 0.073

DSADVPAFSNSNGFNNV [YMR153W/NUP53]
protein stability index (doa10∆): 3.1 ± 0.062
protein stability index (pdr5∆): 3.2 ± 0.067
protein stability index (san1∆): 3.22 ± 0.041
protein stability index (ubr1∆): 3.23 ± 0.048

DSDELGGESMEGPKKCI [SNM1]
protein stability index (doa10∆): 3.38 ± 0.086
protein stability index (pdr5∆): 3.51 ± 0.086
protein stability index (san1∆): 3.39 ± 0.076
protein stability index (ubr1∆): 3.4 ± 0.071

DSDKGSKLNELKKELKL [SMC2]
protein stability index (doa10∆): 3.56 ± 0.18
protein stability index (pdr5∆): 3.02 ± 0.23
protein stability index (ubr1∆): 3.33 ± 0.17

DSENFSFEKLYEGMKLG [YMR129W/POM152]
protein stability index (doa10∆): 3.5 ± 0.11
protein stability index (pdr5∆): 3.48 ± 0.15
protein stability index (san1∆): 3.42 ± 0.098
protein stability index (ubr1∆): 3.29 ± 0.074

DSFIFDGTAKEVGDEAD [MED4]
protein stability index (doa10∆): 3.22 ± 0.062
protein stability index (pdr5∆): 3.31 ± 0.057
protein stability index (san1∆): 3.38 ± 0.05
protein stability index (ubr1∆): 3.11 ± 0.051

DSLISGVKQKITIQLTR [BRR2]
protein stability index (doa10∆): 1.44 ± 0.12
protein stability index (pdr5∆): 1.74 ± 0.064
protein stability index (san1∆): 2.66 ± 0.083
protein stability index (ubr1∆): 1.63 ± 0.073

DSNESDDDVTPSTKVAS [YLR335W/NUP2]
protein stability index (doa10∆): 3.46 ± 0.16
protein stability index (pdr5∆): 3.13 ± 0.15
protein stability index (san1∆): 3.26 ± 0.088
protein stability index (ubr1∆): 3.54 ± 0.12

DSSMTTVQENELLKSSL [AAR2]
protein stability index (doa10∆): 2.79 ± 0.12
protein stability index (pdr5∆): 3.32 ± 0.1
protein stability index (san1∆): 3.12 ± 0.095
protein stability index (ubr1∆): 2.94 ± 0.13

DSSVEDSTDNENSGKEM [LIN1]
protein stability index (doa10∆): 3.04 ± 0.041
protein stability index (pdr5∆): 3.24 ± 0.069
protein stability index (san1∆): 3.41 ± 0.081
protein stability index (ubr1∆): 2.99 ± 0.031

DSTPEEVSCKLLETITY [YML103C/NUP188]
protein stability index (doa10∆): 2.47 ± 0.077
protein stability index (pdr5∆): 2.82 ± 0.086
protein stability index (san1∆): 2.47 ± 0.075
protein stability index (ubr1∆): 2.79 ± 0.092

DSTVNKSITLKGRNNES [YDL088C/ASM4]
protein stability index (doa10∆): 3.28 ± 0.09
protein stability index (pdr5∆): 3.38 ± 0.084
protein stability index (san1∆): 3.23 ± 0.058
protein stability index (ubr1∆): 3.21 ± 0.079

DTFRAGAFDQLKQNAIR [SRP54]
protein stability index (doa10∆): 2.82 ± 0.058
protein stability index (pdr5∆): 2.99 ± 0.056
protein stability index (san1∆): 3.09 ± 0.053
protein stability index (ubr1∆): 3.09 ± 0.076

DTFRWVGKKSAPEKDIW [RPO31]
protein stability index (doa10∆): 2.79 ± 0.095
protein stability index (pdr5∆): 2.88 ± 0.11
protein stability index (san1∆): 2.9 ± 0.067
protein stability index (ubr1∆): 3.15 ± 0.061

DTISAITHQLNNKFANK [RPC25]
protein stability index (pdr5∆): 2.42 ± 0.16

DTKLRLEKSKNECQRLQ [YIL149C/MLP2]
protein stability index (doa10∆): 2.57 ± 0.055
protein stability index (pdr5∆): 2.85 ± 0.059
protein stability index (san1∆): 2.54 ± 0.056
protein stability index (ubr1∆): 2.87 ± 0.04

DTLDGDLMDDMSDISDL [RPN3]
protein stability index (doa10∆): 2.71 ± 0.18
protein stability index (pdr5∆): 2.69 ± 0.076
protein stability index (san1∆): 2.11 ± 0.13
protein stability index (ubr1∆): 2.14 ± 0.1

DTLDPALLRPGRLDRKV [RPT4]
protein stability index (doa10∆): 3.02 ± 0.26

DTPTSGKHNLTIWCVCD [BRR2]
protein stability index (doa10∆): 3.05 ± 0.11
protein stability index (pdr5∆): 3.22 ± 0.1
protein stability index (san1∆): 3.14 ± 0.075
protein stability index (ubr1∆): 3.08 ± 0.082

DTQFTKLLDDNPTEFDW [SRB8]
protein stability index (doa10∆): 2.99 ± 0.089
protein stability index (pdr5∆): 3.04 ± 0.071
protein stability index (san1∆): 2.91 ± 0.058
protein stability index (ubr1∆): 2.91 ± 0.043

DTSLCINGEPSIHVNRV [RRI1]
protein stability index (doa10∆): 2.99 ± 0.081
protein stability index (pdr5∆): 3.04 ± 0.073
protein stability index (san1∆): 2.99 ± 0.053
protein stability index (ubr1∆): 3.04 ± 0.05

DVDMEDRNLTEFDSTDT [RRI1]
protein stability index (doa10∆): 2.93 ± 0.12
protein stability index (pdr5∆): 3.09 ± 0.12
protein stability index (san1∆): 2.71 ± 0.13
protein stability index (ubr1∆): 3.01 ± 0.055

DVEDDDKETQLKKRAVS [POP7]
protein stability index (doa10∆): 2.85 ± 0.18
protein stability index (pdr5∆): 2.94 ± 0.096
protein stability index (san1∆): 2.41 ± 0.16
protein stability index (ubr1∆): 2.5 ± 0.21

DVLKVNTLVRPNGTKKA [RPL25]
protein stability index (doa10∆): 2.75 ± 0.087
protein stability index (pdr5∆): 2.91 ± 0.08
protein stability index (san1∆): 2.89 ± 0.1
protein stability index (ubr1∆): 3.26 ± 0.067

DVTPISMFGSDQKTGRA [RPN4]
protein stability index (doa10∆): 2.93 ± 0.069
protein stability index (pdr5∆): 3.11 ± 0.094
protein stability index (san1∆): 3.07 ± 0.066
protein stability index (ubr1∆): 2.95 ± 0.069

DYNKKQDRIQDVKLVLA [MED1]
protein stability index (doa10∆): 2.69 ± 0.078
protein stability index (pdr5∆): 2.83 ± 0.074
protein stability index (san1∆): 2.28 ± 0.11
protein stability index (ubr1∆): 2.28 ± 0.072

DYTLQDIICEDSTLILE [RPB2]
protein stability index (doa10∆): 2.83 ± 0.082
protein stability index (pdr5∆): 2.64 ± 0.078
protein stability index (san1∆): 2.11 ± 0.11
protein stability index (ubr1∆): 2.15 ± 0.072

EAEMAYVKAVSDKAQLN [SMC4]
protein stability index (doa10∆): 2.62 ± 0.062
protein stability index (pdr5∆): 2.33 ± 0.052
protein stability index (san1∆): 2.2 ± 0.072
protein stability index (ubr1∆): 2.26 ± 0.05

EAIDGNGEIKGENIDAD [SNF2]
protein stability index (doa10∆): 3.53 ± 0.14
protein stability index (pdr5∆): 3.4 ± 0.071
protein stability index (san1∆): 3.48 ± 0.078
protein stability index (ubr1∆): 3.25 ± 0.12

EAKKFEPTYRLVRYGLA [RPS24A]
protein stability index (doa10∆): 2.83 ± 0.14
protein stability index (pdr5∆): 3.11 ± 0.095
protein stability index (san1∆): 2.79 ± 0.13
protein stability index (ubr1∆): 2.88 ± 0.049

EANFDLINIDTSIANAF [RPC40]
protein stability index (doa10∆): 2.78 ± 0.049
protein stability index (pdr5∆): 3.27 ± 0.057
protein stability index (san1∆): 3 ± 0.05
protein stability index (ubr1∆): 3.07 ± 0.043

EASKKSAVKPRPLKLER [FAS1]
protein stability index (doa10∆): 3.1 ± 0.15
protein stability index (pdr5∆): 3.16 ± 0.13
protein stability index (san1∆): 2.88 ± 0.17
protein stability index (ubr1∆): 3.05 ± 0.11

ECENEIKTKQMSLKKCQ [SMC2]
protein stability index (doa10∆): 2.92 ± 0.25
protein stability index (pdr5∆): 3.28 ± 0.1
protein stability index (san1∆): 3.22 ± 0.076
protein stability index (ubr1∆): 3.32 ± 0.058

ECLQAYIFFGPIYYQKL [RET1]
protein stability index (doa10∆): 2.54 ± 0.077
protein stability index (pdr5∆): 2.65 ± 0.071
protein stability index (san1∆): 2.24 ± 0.1
protein stability index (ubr1∆): 2.72 ± 0.05

ECPLDPGGYFIVNGTEK [RET1]
protein stability index (doa10∆): 3.18 ± 0.12
protein stability index (pdr5∆): 3.34 ± 0.095
protein stability index (san1∆): 3.26 ± 0.088
protein stability index (ubr1∆): 3.29 ± 0.082

ECPVGEFLINEGTPINN [RPN14]
protein stability index (doa10∆): 2.99 ± 0.1
protein stability index (pdr5∆): 2.39 ± 0.069
protein stability index (san1∆): 2.89 ± 0.11
protein stability index (ubr1∆): 2.31 ± 0.085

EDDDIRSRMLPTITLDD [SNF5]
protein stability index (doa10∆): 2.46 ± 0.15
protein stability index (pdr5∆): 3.07 ± 0.18
protein stability index (ubr1∆): 3.44 ± 0.14

EDEDEDDETPSCEVEEI [SNU114]
protein stability index (doa10∆): 3.05 ± 0.051
protein stability index (pdr5∆): 2.22 ± 0.05
protein stability index (san1∆): 2.99 ± 0.056
protein stability index (ubr1∆): 2.85 ± 0.044

EDEGEELTDEYLAENPD [PRP8]
protein stability index (doa10∆): 3.43 ± 0.12
protein stability index (pdr5∆): 3.39 ± 0.13
protein stability index (san1∆): 3.33 ± 0.12
protein stability index (ubr1∆): 3.34 ± 0.092

EDETVKVAQLRQTGPAK [NSL1]
protein stability index (doa10∆): 3.1 ± 0.16
protein stability index (pdr5∆): 2.83 ± 0.17
protein stability index (san1∆): 3.08 ± 0.19
protein stability index (ubr1∆): 3.67 ± 0.11

EDFAPLLAEEEELILPN [PRP8]
protein stability index (doa10∆): 3.14 ± 0.17
protein stability index (pdr5∆): 3.38 ± 0.15
protein stability index (san1∆): 2.93 ± 0.066
protein stability index (ubr1∆): 2.78 ± 0.1

EDFMDIPKPRTAGKTSV [SNF2]
protein stability index (doa10∆): 2.67 ± 0.14
protein stability index (pdr5∆): 3.24 ± 0.085
protein stability index (san1∆): 3.2 ± 0.18
protein stability index (ubr1∆): 3.08 ± 0.06

EDGRTLSDYNIQKESTL [RPS31]
protein stability index (doa10∆): 2.92 ± 0.081
protein stability index (pdr5∆): 3.02 ± 0.066
protein stability index (san1∆): 3.05 ± 0.065
protein stability index (ubr1∆): 3.01 ± 0.09

EDILQGIFNLLNTLFNP [NUT1]
protein stability index (doa10∆): 2.23 ± 0.052
protein stability index (pdr5∆): 2.35 ± 0.055
protein stability index (san1∆): 2.41 ± 0.078
protein stability index (ubr1∆): 2.3 ± 0.075

EDIVGALRRRVGPSEQN [REC8]
protein stability index (doa10∆): 2.28 ± 0.074
protein stability index (pdr5∆): 1.58 ± 0.052
protein stability index (san1∆): 2.71 ± 0.12
protein stability index (ubr1∆): 2.43 ± 0.075

EDNEMLEDLFSYRNGMA [YJR042W/NUP85]
protein stability index (doa10∆): 2.02 ± 0.082
protein stability index (pdr5∆): 1.89 ± 0.086
protein stability index (san1∆): 2.65 ± 0.089
protein stability index (ubr1∆): 1.95 ± 0.079

EDRPPEYWAQRKKKFVL [ISW2]
protein stability index (pdr5∆): 3.13 ± 0.19

EDVLVNQILMSVNFFVS [RPL1A]
protein stability index (doa10∆): 1.91 ± 0.044
protein stability index (pdr5∆): 2.4 ± 0.045
protein stability index (san1∆): 2.08 ± 0.068
protein stability index (ubr1∆): 2.23 ± 0.035

EDVVAISSRTYGQRAVL [RPS0B]
protein stability index (doa10∆): 3.28 ± 0.12
protein stability index (pdr5∆): 3.03 ± 0.06
protein stability index (san1∆): 3.01 ± 0.087
protein stability index (ubr1∆): 3.1 ± 0.049
